# Assay results taken from US20260193669A1 (NYKODE THERAPEUTICS ASA, published 2026).
# Target: the molecule itself
# Assay: blue native PAGE and Western blot of supernatant, Motavizumab detection; self-assembly
row,Protein,binding result
1,"PreF protein and ferritin (further polypeptide of DNA plasmids IV083 and IV085; also encoded alone by IV081) (other, Secreted into supernatant of Expi293F cells; 24-mer by native PAGE; also called further polypeptide (PreF protein)-ferritin nanoparticles, IV083 and IV085) QNITEEFYQSTCSAVSKGYLSALRTGWYTSVITIELSNIKENKCNGTDAKVKLIKQELDKYKNAVTELQLLMGSGNVGLGGAIASGVAVSKVLHLEGEVNKIKSALLSTNKAVVSLSNGVSVLTFKVLDLKNYIDKQLLPILNKQSCSISNPETVIEFQQKNNRLLEITREFSVNAGVTTPVSTYMLTNSELLSLINDMPITNDQKKLMSNNVQIVRQQSYSIMSIIKEEVLAYVVQLPLYGVIDTPCWKLHTSPLCTTNTKNGSNICLTRTDRGWYCDNAGNVSFFPQAETCKVQSNRVFCDTMNSRTLPSEVNLCNVDIFNPKYDCKIMTSKTDVSSSVITSLGAIVSCYGKTKCTASNKNRGIIKTFSNGCDYVSNKGVDTVSVGNTLYYVNKQEGKSLYVKGEPIINFYDPLVFPSDEFDASISQVNEKINQSLAFINKSDELLSGSGSESQVRQQFSKDIEKLLNEQVNKEMQSSNLYMSMSSWSYTHSLDGAGLFLFDHAAEEYEHAKKLIIFLNENNVPVQLTSISAPEHCFEGLTQIFQKAYEHEQHISESINNIVDHAIKSKDHATFNFLQWYVAEQHEEEVLFKDILDKIELIGNENHGLYLADQYVKGIAKSRKS",binds
2,"Single chain PreF protein and ferritin (further polypeptide of DNA plasmids IV082 and IV084; also encoded alone by IV080) (other, Secreted into supernatant of Expi293F cells; 24-mer by native PAGE; also called further polypeptide (PreF protein)-ferritin nanoparticles, IV082 and IV084) QNITEEFYQSTCSAVSKGYLSALRTGWYTSVITIELSNIKENKCNGTDAKVKLIKQELDKYKNAVTELQLLMGSGNVGLGGAIASGVAVCKVLHLEGEVNKIKSALLSTNKAVVSLSNGVSVLTFKVLDLKNYIDKQLLPILNKQSCSISNIETVIEFQQKNNRLLEITREFSVNAGVTTPVSTYMLTNSELLSLINDMPITNDQKKLMSNNVQIVRQQSYSIMCIIKEEVLAYVVQLPLYGVIDTPCWKLHTSPLCTTNTKEGSNICLTRTDRGWYCDNAGSVSFFPQAETCKVQSNRVFCDTMNSRTLPSEVNLCNVDIFNPKYDCKIMTSKTDVSSSVITSLGAIVSCYGKTKCTASNKNRGIIKTFSNGCDYVSNKGVDTVSVGNTLYYVNKQEGKSLYVKGEPIINFYDPLVFPSDEFDASISQVNEKINQSLAFIRKSDELLSGGSSGSSGGSDIIKLLNEQVNKEMQSSNLYMSMSSWCYTHSLDGAGLFLFDHAAEEYEHAKKLIIFLNENNVPVQLTSISAPEHKFEGLTQIFQKAYEHEQHISESINNIVDHAIKCKDHATFNFLQWYVAEQHEEEVLFKDILDKIELIGNENHGLYLADQYVKGIAKSRKSGS",binds
